doi:10.1101/2020.02.18.953711 (bioRxiv, 2020)

Target: T1, CEPR2^KD-His (Arabidopsis thaliana, UniProt Q9C7T7 642-977)
T1 sequence (looked up): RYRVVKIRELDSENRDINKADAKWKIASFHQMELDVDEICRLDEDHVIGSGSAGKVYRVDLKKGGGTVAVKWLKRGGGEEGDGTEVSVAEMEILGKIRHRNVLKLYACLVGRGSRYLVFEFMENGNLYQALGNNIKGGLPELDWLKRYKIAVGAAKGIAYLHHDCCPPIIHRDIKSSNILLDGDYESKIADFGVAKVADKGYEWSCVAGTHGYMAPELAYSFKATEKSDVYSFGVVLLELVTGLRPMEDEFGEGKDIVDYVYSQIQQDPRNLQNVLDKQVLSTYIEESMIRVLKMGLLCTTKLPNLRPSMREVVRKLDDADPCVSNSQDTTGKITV
Experiment: pull-down

B1: NRT1.2^loop-GST (domain or fragment, Arabidopsis thaliana, UniProt Q8H157 232-346, looked up)
chain: SGSRFYRNKIPCGSPLTTILKVLLAASVKCCSSGSSSNAVASMSVSPSNHCVSKGKKEVESQGELEKPRQEEALPPRAQLTNSLKVLNGAADEKPVHRLLECTVQQVEDVKIVLK
- binding result: binds
